Experimental data: US20230105029A1 (CHIA TAI TIANQING PHARMACEUTICAL GROUP, published 2023)
Changes are numbered by the printed parent chain. Read-outs that look alike come from different tables or passages of the source.

B1: mouse antibody B1D2F7D3B5 (antibody, V domains shown)
VH: EVKLVESGGGLVKPGGSLKLSCAASGFTFSSYAMSWVRQTPEKRLEWVASISSGDSTYYLDSVKGRFTISRDNAMNILYLQMSSLRSEDTAVYYCERSGGSAPYWGQGTLVSVSA
VL: QIVLTQSPAIMSASPGEMVTISCSASSSVSYMYWYQQKPGSSPKPWIYRTSNLASGVPARFSGSGSGTSYSLTISSMEAEDAATYYCQQYHSFPLTFGAGTKLELK
notes: Mouse hybridoma mAb
B2: mouse antibody B9D1D11F8D8 (antibody, V domains shown)
VH: B1 VH with M75R, M82V, V92M, S112T
VL: B1 VL with E17D, S30N
notes: Mouse hybridoma mAb
B3: mouse antibody C2C1A1A1 (antibody, V domains shown)
VH: EVQLVESGGGLVQPGGSLKLSCAASGFTFSTYGMSWVRQTPDKRLELVATINSNGGSTSYPDSVKGRFTISRDNAKNTLYLQMSSLKSEDTAMFYCARFFRFRNAMDYWGQGTSVTVSS
VL: DIQMTQSPASLSASVGETVTITCRTSENIYSYLAWYQQKQGKSPQFLVYNAKTLAEGVPSRFSGSGSGTQFSLNINSLQSEDFGSYYCQHYYGPPTWTFGGGTKLEIK
notes: Mouse hybridoma mAb; also called Mouse C2C1A1A1
B4: chimeric antibody C2C1A1A1 (antibody, human IgG4 S228P, kappa, V domains shown)
VH: B3 VH
VL: DIQMTQSPASLSASVGETVTITCRTSENIYSYLAWYQQKQGKSPQFLVYNAKTLAEGVPSRFSGSGSGTQFSLNINSLQSEDFGSYYCQHYYGPPTWTFGGGTKLEIKR
notes: Mouse variable domains on human IgG4/kappa; also called Chimeric C2C1A1A1; chC2C1A1A1
B5: mouse antibody C2B2F7B7 (antibody, V domains shown)
VH: B3 VH with S59N, F94Y, F102I
VL: B3 VL with T25A, N74K, S80P, P94T
notes: Mouse hybridoma mAb
B6: mouse antibody B8G11F2B7G5E8 (antibody, V domains shown)
VH: EVQLQQSGADLVRPGASVKLSCTASGFNIKDTYMHWVKQRPEQGLEWVGRIDPTNGYTIYASKFQGKATITADTSSNTAYMQLSSLTSGDTAVYHCVSRRPWFAYWGQGTLVTVSA
VL: DILMTQTPLSLPVSLGAQASISCRSSQSIVHSNGNTYLEWYLQKPGQSPKLLIYKVTNRFSGVPDRFSGSGSGTDFTLKISRVEAEDLGIYYCFQGSHVPYTFGGGTKLEIK
notes: Mouse hybridoma mAb; also called Mouse B8G11F2B7G5E8; mAb B8G11F2B7G5E8
B7: chimeric antibody B8G11F2B7G5E8 (antibody, human IgG4 S228P, kappa, V domains shown)
VH: B6 VH
VL: DILMTQTPLSLPVSLGAQASISCRSSQSIVHSNGNTYLEWYLQKPGQSPKLLIYKVTNRFSGVPDRFSGSGSGTDFTLKISRVEAEDLGIYYCFQGSHVPYTFGGGTKLEIKR
notes: Mouse variable domains on human IgG4/kappa; also called Chimeric B8G11F2B7G5E8; chB8G11F2B7G5E8

Assays:
[1] = molecular target: T1, human IL4Rα expressed on 293F-IL4Rα cells (human, UniProt P24394 26-825); assay: flow cytometry, blocks biotin-IL4 binding to 293F-IL4Rα cells
T1 construct: whole, on cells; also called cell surface human IL4Rα
Protocol: Then, 1×10⁵ cells per well in 96 well-plates were incubated in 100 μL of the anti-IL4Rα antibodies or controls of various concentrations (starting at 80 nM with a 4-fold serial dilution) in FACS buffer for 40 minutes on ice. The plates were washed twice with FACS buffer, and added and incubated for 40 minutes at 4° C. in dark with 100 μl/well 1.67 nM biotin-labeled human IL4 protein (Sino biological inc., Cat #11846-HNAE). The plates were washed twice with FACS buffer, and then added and incubated for 40 minutes at 4° C. in dark with 100 μl/well R-Phycoerythrin Streptavidin (1:500 dilution in FACS buffer, Jackson Immunoresearch, Cat #016-110-084). Cells were washed twice and resuspended in FACS buffer. Fluorescence was measured using a Becton Dickinson FACS Canto II-HTS equipment. Data was analyzed using Graphpad Prism software and IC₅₀ values were reported.

[2] = molecular target: T2, recombinant human IL4Rα-his protein (in house made) (human, UniProt P24394 26-232, limits assumed); assay: SPR (Biacore), antibody captured, IL4Rα-his flowed
T2 construct: also called Human IL4Ra-his
Protocol: Briefly, goat anti-mouse IgG (GE healthcare, Cat #BR100838, Mouse Antibody Capture Kit) was covalently linked to a CMS chip (carboxy methyl dextran coated chip) via primary amines, using a standard amine coupling kit provided by Biacore (GE healthcare, Pittsburgh, Pa., USA). Un-reacted moieties on the biosensor surface were blocked with ethanolamine. Then, purified anti-IL4Rα antibodies of the disclosure at the concentration of 66.67 nM and an anti-IL4Rα benchmark (Dupilumab®, also referred to as BM) at 10 μg/ml, were flowed onto the chip at a flow rate of 10 μL/min. Then, serially diluted recombinant human IL4Rα-his (in house made, amino acid sequence set forth in SEQ ID NO: 57), cynomolgus monkey IL4Rα-his protein (Sino biological inc., Cat #90897—C08H), or marmoset monkey IL4Rα-his protein (Custom made by Sino biological inc., also referred to as cal-IL4Rα-his, amino acid sequence set forth in SEQ ID NO: 58) in HBS EP buffer (provided by Biacore) was flowed onto the chip at a flow rate of 30 μL/min. The antigen-antibody association kinetics was followed for 2 minutes and the dissociation kinetics was followed for 10 minutes. The association and dissociation curves were fit to a 1:1 Langmuir binding model using BIA evaluation software.

[3] = molecular target: T2, recombinant human IL4Rα-his protein (in …); assay: competitive ELISA, blocks biotin-IL4 binding to coated IL4Rα-his
Protocol: The activity of the anti-IL4Rα antibodies of the disclosure to block IL4-IL4Rα interaction was measured in a competitive ELISA assay. Briefly, 100 μl human IL4Rα-his proteins (prepared in-house with SEQ ID NO: 57) were coated on 96-well micro plates at 2 μg/mL in PBS overnight at 4° C. The next day, plates were washed with wash buffer (PBS+0.05% w/v Tween-20, PBST), and blocked with 5% w/v non-fatty milk in PBST for 2 hours at 37° C. Plates were then washed again using wash buffer.
Serially diluted anti-IL4Rα antibodies or the controls (starting at 80 nM with a 4-fold serial dilution) in 2.5% w/v non-fatty milk in PBST, 100 μl per well, were added to the IL4Rα bound plates, and incubated with the human IL4Rα-his proteins at 37° C. for 40 minutes. Plates were washed 4 times using wash buffer, and then added and incubated for 40 minutes at 37° C. with 100 μl/well of 0.56 nM biotin-labeled human IL4 protein (Sino biological inc., Cat #11846-HNAE). Plates were washed again using wash buffer. Thereafter, the plates were added with 100 μl/well of streptavidin conjugated HRP (1:10000 dilution in PBST buffer, Jackson Immunoresearch, Cat #016-030-084) and incubated for 40 minutes at 37° C. Plates were washed again using wash buffer. Finally, TMB was added and the reaction was stopped using 1M H₂SO₄, and the absorbance was read at 450 nm. Data was analyzed using Graphpad Prism software and IC₅₀ values were reported.

[4] = molecular target: T2, recombinant human IL4Rα-his protein (in …); assay: as above; remark: listed apart in the source
[5] = molecular target: human IL4Rα expressed on HEK293T-IL4Rα-STAT6-STAT6LUC-LB2 cells (human, UniProt P24394 26-825); assay: cell-based or functional assay
[6] = molecular target: T2, recombinant human IL4Rα-his protein (in …); assay: capture ELISA, biotin-IL4Rα-his
Protocol: Plates were washed once with wash buffer (PBS+0.05% w/v Tween-20, PBST) and then blocked with 200 μl/well blocking buffer (5% w/v non-fatty milk in PBST) for 2 hours at 37° C. Plates were washed again and incubated with 100 μl/well serially diluted anti-IL4Rα antibodies of the disclosure, the benchmark or negative control hIgG (human immunoglobulin (pH4) for intravenous injection, Hualan Biological Engineering Inc.) (5-fold dilution in 2.5% w/v non-fatty milk in PBST, starting at 66.7 nM) for 40 minutes at 37° C., and then washed 4 times again. Plates containing captured anti-IL4Rα antibodies were incubated with biotin-labeled human IL4Rα-his protein (in house made with SEQ ID NO: 57, 0.14 nM in 2.5% w/v non-fatty milk in PBST, 100 μl/well) for 40 minutes at 37° C., washed 4 times, and incubated with streptavidin conjugated HRP (1:10000 dilution in PBST, Jackson Immuno Research, Cat #016-030-084, 100 μl/well) for 40 minutes at 37° C. After a final wash, plates were incubated with 100 μl/well ELISA substrate TMB (Innoreagents, Cat #TMB-S-002). The reaction was stopped in 10 minutes at 25° C. with 50 μl/well 1M H₂SO₄, and the absorbance was read at 450 nm. Data was analyzed using Graphpad Prism software and EC₅₀ values were reported.
For the capture ELISA, 96-well micro plates were coated with 2 μg/ml goat anti-human IgG (AffiniPure Goat Anti-Human IgG, Fcγ fragment specific, Jackson Immunoresearch, Cat #109-005-098) instead of goat anti-mouse IgG Fey fragment, 100 μl/well.

Binder | IC50 [1] [nM] | Kd [2] [nM] | koff [2] [s⁻¹] | kon [2] [M⁻¹ s⁻¹] | IC50 [3] [nM] | IC50 [4] [nM] | Inhibition on IL4 induced STAT6 phosphorylation (IC50, nM) [5] [nM] | Inhibition on IL13 induced STAT6 phosphorylation (IC50, nM) [5] [nM] | EC50 [6] [nM]
B1 | 0.78 | 0.623 | 0.000266 | 427000 | 1.8 |  |  |  | 
B2 | 0.75 | 0.655 | 0.000274 | 418000 | 2.88 |  |  |  | 
B3 | 0.44 | 0.0401 | 1.16e-05 | 290000 | 0.81 | 1.89 | 0.19 | 0.27 | 0.03
B4 |  |  |  |  |  | 3.12 | 0.27 | 0.56 | 0.05
B5 | 0.4 | 0.554 | 0.000139 | 251000 | 0.73 |  |  |  | 
B6 | 0.8 | 1.49 | 0.000293 | 197000 | 0.81 | 1.64 | 0.26 | 0.6 | 0.14
B7 |  |  |  |  |  | 1.82 | 0.26 | 0.76 | 0.27
